Measurements published in publication PMC7711741.
Like-named read-outs stand apart in the source and are kept apart here.

How the values were obtained:
[1] = biological target: mupain-1 (synthetic construct)
[2] = biological target: mupain-1 (synthetic construct); details: cited from earlier work
[3] = biological target: mupain-1 (synthetic construct); details: cited from earlier work; remark: listed apart in the source
[4] = biological target: urokinase-type plasminogen activator (muPA) (Mus musculus) (UniProt P06869); details: cited from earlier work
urokinase-type plasminogen activator (muPA) (Mus musculus), sequence (P06869 180-433): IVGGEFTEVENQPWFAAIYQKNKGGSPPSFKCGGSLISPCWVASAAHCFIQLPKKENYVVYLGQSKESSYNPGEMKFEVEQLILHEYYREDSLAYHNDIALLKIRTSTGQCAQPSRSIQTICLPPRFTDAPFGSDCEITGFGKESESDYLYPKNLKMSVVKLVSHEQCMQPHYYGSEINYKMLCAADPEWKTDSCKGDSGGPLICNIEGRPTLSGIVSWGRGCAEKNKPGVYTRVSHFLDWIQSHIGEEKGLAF

[5] = biological target: mupain-1 (synthetic construct); remark: listed apart in the source
[6] = biological target: mupain-1 (synthetic construct); assay: SPR
[7] = biological target: mupain-1 (synthetic construct); remark: listed apart in the source
[8] = biological target: mupain-1 (synthetic construct); details: cited from earlier work; remark: listed apart in the source
[9] = biological target: mupain-1 (synthetic construct); details: cited from earlier work; remark: listed apart in the source
[10] = biological target: mupain-1 (synthetic construct); details: cited from earlier work; remark: listed apart in the source
[11] = biological target: mupain-1 (synthetic construct); details: cited from earlier work; remark: listed apart in the source

plasma kallikrein, P03952, sequence (P03952 391-638): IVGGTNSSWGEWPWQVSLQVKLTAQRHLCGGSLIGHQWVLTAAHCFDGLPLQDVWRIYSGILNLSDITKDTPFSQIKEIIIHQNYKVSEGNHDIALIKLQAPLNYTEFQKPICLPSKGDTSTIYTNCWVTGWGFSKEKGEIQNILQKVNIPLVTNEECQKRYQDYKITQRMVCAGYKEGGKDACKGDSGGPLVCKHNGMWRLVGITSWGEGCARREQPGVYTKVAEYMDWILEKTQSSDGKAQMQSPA
beta-trypsin, sequence (P00760 24-246): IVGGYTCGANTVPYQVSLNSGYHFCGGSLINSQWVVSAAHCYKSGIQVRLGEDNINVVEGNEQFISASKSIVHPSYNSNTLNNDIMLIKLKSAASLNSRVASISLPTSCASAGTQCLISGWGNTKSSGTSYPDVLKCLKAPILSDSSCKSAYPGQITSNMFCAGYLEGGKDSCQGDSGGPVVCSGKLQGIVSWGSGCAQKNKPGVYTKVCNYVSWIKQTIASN
plasmin (from UniProt P00747), sequence (P00747 581-810): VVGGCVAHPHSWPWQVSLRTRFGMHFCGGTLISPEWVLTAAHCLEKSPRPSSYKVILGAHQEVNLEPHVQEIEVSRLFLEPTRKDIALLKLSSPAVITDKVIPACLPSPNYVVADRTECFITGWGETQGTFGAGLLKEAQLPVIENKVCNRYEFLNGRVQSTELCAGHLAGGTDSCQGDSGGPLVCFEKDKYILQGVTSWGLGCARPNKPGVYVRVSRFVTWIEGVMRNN
plasmin (from UniProt P20918), sequence (P20918 582-812): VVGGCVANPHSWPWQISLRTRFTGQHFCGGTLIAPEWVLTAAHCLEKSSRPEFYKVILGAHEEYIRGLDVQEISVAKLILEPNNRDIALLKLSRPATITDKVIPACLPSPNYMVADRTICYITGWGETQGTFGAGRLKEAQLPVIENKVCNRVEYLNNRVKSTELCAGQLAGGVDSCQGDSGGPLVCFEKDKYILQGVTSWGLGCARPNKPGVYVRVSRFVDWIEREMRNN
plasma kallikrein, P26262, sequence (P26262 391-638): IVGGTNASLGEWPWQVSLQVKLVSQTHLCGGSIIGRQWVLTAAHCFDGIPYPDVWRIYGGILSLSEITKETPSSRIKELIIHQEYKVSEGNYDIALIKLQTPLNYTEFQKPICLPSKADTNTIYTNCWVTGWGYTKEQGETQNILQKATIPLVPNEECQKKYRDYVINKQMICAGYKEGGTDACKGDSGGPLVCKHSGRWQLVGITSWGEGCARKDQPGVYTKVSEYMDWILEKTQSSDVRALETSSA
urokinase-type plasminogen activator, sequence (P06869 157-178): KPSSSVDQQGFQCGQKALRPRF
factor XIa catalytic domain, sequence (P03951 388-625): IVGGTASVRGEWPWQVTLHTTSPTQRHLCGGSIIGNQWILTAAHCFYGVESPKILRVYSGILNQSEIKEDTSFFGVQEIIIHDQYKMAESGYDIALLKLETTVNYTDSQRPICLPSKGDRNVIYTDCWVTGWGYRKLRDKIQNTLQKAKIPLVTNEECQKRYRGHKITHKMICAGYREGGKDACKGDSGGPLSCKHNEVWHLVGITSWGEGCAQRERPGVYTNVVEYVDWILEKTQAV

Substance KLK1, P06870 has a Ki [1] greater than 1000 µM.

In the case of beta-trypsin (from UniProt P00760), the Ki [2] is listed as 20.7 µM.

For “factor XIa catalytic domain (from UniProt P03951)”, the Ki [3] is listed as greater than 1000 µM.

In the case of mupain-1, the Ki [4] is listed as 0.55 µM.

plasma kallikrein, P03952 gave a Ki [5] greater than 1000 µM and a Kd [6] greater than 1000 µM.

With plasma kallikrein, P26262 the Ki [7] was greater than 1000 µM.

In the case of plasmin (from UniProt P00747), the Ki [8] is given as greater than 1000 µM.

In the case of plasmin (from UniProt P20918), the Ki [9] is given as greater than 1000 µM.

In the case of “urokinase-type plasminogen activator (from UniProt P00749)”, the Ki [10] is listed as greater than 1000 µM.

In the case of “urokinase-type plasminogen activator (from UniProt P06869)”, the Ki [11] is given as 0.55 µM.
